B1: JUNB (parent)
chain: FVKALDDLHKMNHVTPPNVSLGAT

Variants of: B1
Assay: protein stability index of a GFP-peptide fusion (GPS, HEK-293T) (PSI 1-6); higher = more stable
Settings: c terminus: a fixed tail appended
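Also: lentivirally expressed fusions sorted by FACS into six bins by GFP to DsRed ratio, PSI derived from sequencing read proportions per bin multiplied by bin number.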

Row | Variant | protein stability index
1 | FVKALDDLHKMNHVTPPVVSLGAT | 1.63
2 | FVKALDDLHKMNHVTPPAVSLGAT | 1.32
3 | FVKALDDLHKMNHVTPPFVSLGAT | 2.41
4 | FVKALDDLHKMNHVTPPGVSLGAT | 1.73
5 | FVKALDDLHKMNHVTPPHVSLGAT | 1.62
6 | FVKALDDLHKMNHVTPPDVSLGAT | 1.73
7 | FVKALDDLHKMNHVTPPLVSLGAT | 1.93
8 | FVKALDDLHKMNHVTPPTVSLGAT | 1.47
9 | FVKALDDLHKMNHVTPPKVSLGAT | 1.75
10 | FVKALDDLHKMNHVTPPRVSLGAT | 3.67
11 | FVKALDDLHKMNHVTPPMVSLGAT | 2.5
12 | FVKALDDLHKMNHVTPPYVSLGAT | 1.73
13 | FVKALDDLHKMNHVTPPCVSLGAT | 1.69
14 | FVKALDDLHKMNHVTPPQVSLGAT | 2.49
15 | FVKALDDLHKMNHVTPPEVSLGAT | 1.62
16 | FVKALDDLHKMNHVTPPSVSLGAT | 2.61
17 | FVKALDDLHKMNHVTPPWVSLGAT | 2.86
18 | FVKALDDLHKMNHVTPPIVSLGAT | 1.4
19 | FVKALDDLHKMNHVTEPNVSLGAT | 2.55
20 | FVKALDDLHKMNHVTCPNVSLGAT | 2.48
21 | FVKALDDLHKMNHVTTPNVSLGAT | 2.34
22 | FVKALDDLHKMNHVTVPNVSLGAT | 1.86
23 | FVKALDDLHKMNHVTGPNVSLGAT | 1.9
24 | FVKALDDLHKMNHVTNPNVSLGAT | 1.14

Row | Variant | protein stability index
25 | FVKALDDLHKMNHVTFPNVSLGAT | 2.55
26 | FVKALDDLHKMNHVTHPNVSLGAT | 1.81
27 | FVKALDDLHKMNHVTRPNVSLGAT | 1.6
28 | FVKALDDLHKMNHVTKPNVSLGAT | 1.79
29 | FVKALDDLHKMNHVTYPNVSLGAT | 1.64
30 | FVKALDDLHKMNHVTWPNVSLGAT | 1.92
31 | FVKALDDLHKMNHVTQPNVSLGAT | 2.11
32 | FVKALDDLHKMNHVTIPNVSLGAT | 1.58
33 | FVKALDDLHKMNHVTMPNVSLGAT | 1.68
34 | FVKALDDLHKMNHVTSPNVSLGAT | 1.78
35 | FVKALDDLHKMNHVTLPNVSLGAT | 1.53
36 | FVKALDDLHKMNHVTAPNVSLGAT | 1.94
37 | FVKALDDLHKMNHVTDPNVSLGAT | 1.76
38 | FVKALDDLHKMNWVTPPNVSLGAT | 2.66
39 | FVKALDDLHKMNIVTPPNVSLGAT | 2.22
40 | FVKALDDLHKMNNVTPPNVSLGAT | 1.54
41 | FVKALDDLHKMNAVTPPNVSLGAT | 1.92
42 | FVKALDDLHKMNVVTPPNVSLGAT | 1.75
43 | FVKALDDLHKMNPVTPPNVSLGAT | 1.75
44 | FVKALDDLHKMNDVTPPNVSLGAT | 1.92
45 | FVKALDDLHKMNGVTPPNVSLGAT | 1.91
46 | FVKALDDLHKMNRVTPPNVSLGAT | 2.4
47 | FVKALDDLHKMNEVTPPNVSLGAT | 3.33
48 | FVKALDDLHKMNLVTPPNVSLGAT | 2.56

Row | Variant | protein stability index
49 | FVKALDDLHKMNFVTPPNVSLGAT | 2.17
50 | FVKALDDLHKMNKVTPPNVSLGAT | 1.74
51 | FVKALDDLHKMNYVTPPNVSLGAT | 1.6
52 | FVKALDDLHKMNQVTPPNVSLGAT | 2.08
53 | FVKALDDLHKMNTVTPPNVSLGAT | 2.75
54 | FVKALDDLHKMNMVTPPNVSLGAT | 2.06
55 | FVKALDDLHKMNCVTPPNVSLGAT | 1.67
56 | FVKALDDLHKMNSVTPPNVSLGAT | 1.2
57 | FVKALDDLHKMNHVTPPNVSLKAT | 1.46
58 | FVKALDDLHKMNHVTPPNVSLLAT | 2.5
59 | FVKALDDLHKMNHVTPPNVSLPAT | 2.15
60 | FVKALDDLHKMNHVTPPNVSLDAT | 2.43
61 | FVKALDDLHKMNHVTPPNVSLFAT | 2.48
62 | FVKALDDLHKMNHVTPPNVSLNAT | 2.28
63 | FVKALDDLHKMNHVTPPNVSLCAT | 2.47
64 | FVKALDDLHKMNHVTPPNVSLMAT | 1.72
65 | FVKALDDLHKMNHVTPPNVSLHAT | 1.54
66 | FVKALDDLHKMNHVTPPNVSLEAT | 2.12
67 | FVKALDDLHKMNHVTPPNVSLIAT | 2.41
68 | FVKALDDLHKMNHVTPPNVSLAAT | 1.85
69 | FVKALDDLHKMNHVGPPNVSLGAT | 2.04
70 | FVKALDDLHKMNHVYPPNVSLGAT | 1.67
71 | FVKALDDLHKMNHVAPPNVSLGAT | 2.79
72 | FVKALDDLHKMNHVFPPNVSLGAT | 1.69

Row | Variant | protein stability index
73 | FVKALDDLHKMNHVKPPNVSLGAT | 2.09
74 | FVKALDDLHKMNHVHPPNVSLGAT | 2.12
75 | FVKALDDLHKMNHVNPPNVSLGAT | 1.84
76 | FVKALDDLHKMNHVRPPNVSLGAT | 2.24
77 | FVKALDDLHKMNHVMPPNVSLGAT | 2.3
78 | FVKALDDLHKMNHVCPPNVSLGAT | 2.06
79 | FVKALDDLHKMNHVWPPNVSLGAT | 1.51
80 | FVKALDDLHKMNHVLPPNVSLGAT | 2.03
81 | FVKALDDLHKMNHVVPPNVSLGAT | 1.6
82 | FVKALDDLHKMNHVPPPNVSLGAT | 2.18
83 | FVKALDDLHKMNHVEPPNVSLGAT | 1.45
84 | FVKALDDLHKMNHVSPPNVSLGAT | 1.92
85 | FVKALDDLHKMNHVQPPNVSLGAT | 2.06
86 | FVKALDDLHKMNHVDPPNVSLGAT | 1.9
87 | FVKALDDLHKMNHVIPPNVSLGAT | 1.59
88 | FVKALDDLHKMNHVTPWNVSLGAT | 3.22
89 | FVKALDDLHKMNHVTPENVSLGAT | 1.48
90 | FVKALDDLHKMNHVTPMNVSLGAT | 2.35
91 | FVKALDDLHKMNHVTPGNVSLGAT | 1.56
92 | FVKALDDLHKMNHVTPDNVSLGAT | 1.97
93 | FVKALDDLHKMNHVTPINVSLGAT | 1.81
94 | FVKALDDLHKMNHVTPVNVSLGAT | 1.71
95 | FVKALDDLHKMNHVTPFNVSLGAT | 2.56
96 | FVKALDDLHKMNHVTPLNVSLGAT | 1.37

Row | Variant | protein stability index
97 | FVKALDDLHKMNHVTPRNVSLGAT | 1.44
98 | FVKALDDLHKMNHVTPYNVSLGAT | 3.73
99 | FVKALDDLHKMNHVTPCNVSLGAT | 2.08
100 | FVKALDDLHKMNHVTPSNVSLGAT | 1.83
101 | FVKALDDLHKMNHVTPQNVSLGAT | 2.21
102 | FVKALDDLHKMNHVTPTNVSLGAT | 1.62
103 | FVKALDDLHKMNHVTPNNVSLGAT | 1.8
104 | FVKALDDLHKMNHVTPHNVSLGAT | 1.89
105 | FVKALDDLHKMNHVTPANVSLGAT | 1.89
106 | FVKALDDLHKMNHVTPKNVSLGAT | 2.64
107 | FVKALDDLHKMNHYTPPNVSLGAT | 1.19
108 | FVKALDDLHKMNHGTPPNVSLGAT | 2.37
109 | FVKALDDLHKMNHHTPPNVSLGAT | 1.78
110 | FVKALDDLHKMNHQTPPNVSLGAT | 2.26
111 | FVKALDDLHKMNHRTPPNVSLGAT | 1.84
112 | FVKALDDLHKMNHATPPNVSLGAT | 2.24
113 | FVKALDDLHKMNHITPPNVSLGAT | 1.82
114 | FVKALDDLHKMNHETPPNVSLGAT | 1.93
115 | FVKALDDLHKMNHWTPPNVSLGAT | 2.7
116 | FVKALDDLHKMNHMTPPNVSLGAT | 1.51
117 | FVKALDDLHKMNHNTPPNVSLGAT | 1.89
118 | FVKALDDLHKMNHPTPPNVSLGAT | 1.46
119 | FVKALDDLHKMNHLTPPNVSLGAT | 1.88
120 | FVKALDDLHKMNHCTPPNVSLGAT | 2.3

Row | Variant | protein stability index
121 | FVKALDDLHKMNHSTPPNVSLGAT | 1.43
122 | FVKALDDLHKMNHDTPPNVSLGAT | 1.87
123 | FVKALDDLHKMNHFTPPNVSLGAT | 1.8
124 | FVKALDDLHKMNHTTPPNVSLGAT | 1.82
125 | FVKALDDLHKMNHKTPPNVSLGAT | 1.53
126 | FVKALDDLHKMNHVTPPNTSLGAT | 1.56
127 | FVKALDDLHKMNHVTPPNNSLGAT | 1.98
128 | FVKALDDLHKMNHVTPPNRSLGAT | 1.9
129 | FVKALDDLHKMNHVTPPNMSLGAT | 1.82
130 | FVKALDDLHKMNHVTPPNLSLGAT | 1.69
131 | FVKALDDLHKMNHVTPPNASLGAT | 1.77
132 | FVKALDDLHKMNHVTPPNDSLGAT | 1.94
133 | FVKALDDLHKMNHVTPPNYSLGAT | 1.47
134 | FVKALDDLHKMNHVTPPNCSLGAT | 2.11
135 | FVKALDDLHKMNHVTPPNFSLGAT | 1.43
136 | FVKALDDLHKMNHVTPPNSSLGAT | 1.63
137 | FVKALDDLHKMNHVTPPNISLGAT | 1.82
138 | FVKALDDLHKMNHVTPPNGSLGAT | 1.49
139 | FVKALDDLHKMNHVTPPNKSLGAT | 1.39
140 | FVKALDDLHKMNHVTPPNHSLGAT | 2.41
141 | FVKALDDLHKMNHVTPPNPSLGAT | 1.44
142 | FVKALDDLHKMNHVTPPNQSLGAT | 1.79
143 | FVKALDDLHKMNHVTPPNWSLGAT | 3.57
144 | FVKALDDLHKMNHVTPPNESLGAT | 1.67

Row | Variant | protein stability index
145 | FVKALDDLHKMNHVTPPNVSWGAT | 1.95
146 | FVKALDDLHKMNHVTPPNVSQGAT | 2.36
147 | FVKALDDLHKMNHVTPPNVSCGAT | 1.38
148 | FVKALDDLHKMNHVTPPNVSDGAT | 2.51
149 | FVKALDDLHKMNHVTPPNVSAGAT | 2.17
150 | FVKALDDLHKMNHVTPPNVSSGAT | 2.25
151 | FVKALDDLHKMNHVTPPNVSYGAT | 1.52
152 | FVKALDDLHKMNHVTPPNVSEGAT | 2.9
153 | FVKALDDLHKMNHVTPPNVSTGAT | 1.78
154 | FVKALDDLHKMNHVTPPNVSMGAT | 2.16
155 | FVKALDDLHKMNHVTPPNVSVGAT | 1.65
156 | FVKALDDLHKMNHVTPPNVSRGAT | 2.15
157 | FVKALDDLHKMNHVTPPNVSHGAT | 1.74
158 | FVKALDDLHKMNHVTPPNVSNGAT | 1.89
159 | FVKALDDLHKMNHVTPPNVSGGAT | 2.54
160 | FVKALDDLHKMNHVTPPNVSFGAT | 2.09
161 | FVKALDDLHKMNHVTPPNVSIGAT | 1.9
162 | FVKALDDLHKMNHVTPPNVSKGAT | 2.44
163 | FVKALDDLHKMNHVTPPNVSPGAT | 1.96
164 | FVKALDDLHKMNHVTPPNVQLGAT | 1.7
165 | FVKALDDLHKMNHVTPPNVALGAT | 3.1
166 | FVKALDDLHKMNHVTPPNVVLGAT | 1.77
167 | FVKALDDLHKMNHVTPPNVDLGAT | 1.72
168 | FVKALDDLHKMNHVTPPNVMLGAT | 1.64

Row | Variant | protein stability index
169 | FVKALDDLHKMNHVTPPNVELGAT | 2.16
170 | FVKALDDLHKMNHVTPPNVCLGAT | 1.83
171 | FVKALDDLHKMNHVTPPNVGLGAT | 2.46
172 | FVKALDDLHKMNHVTPPNVYLGAT | 3.04
173 | FVKALDDLHKMNHVTPPNVRLGAT | 2.33
174 | FVKALDDLHKMNHVTPPNVNLGAT | 1.96
175 | FVKALDDLHKMNHVTPPNVHLGAT | 1.81
176 | FVKALDDLHKMNHVTPPNVWLGAT | 3.23
177 | FVKALDDLHKMNHVTPPNVFLGAT | 1.39
178 | FVKALDDLHKMNHVTPPNVILGAT | 1.11
179 | FVKALDDLHKMNHVTPPNVLLGAT | 1.56
180 | FVKALDDLHKMNHVTPPNVPLGAT | 2.12
181 | FVKALDDLHKMNHVTPPNVKLGAT | 2.81
182 | FVKALDDLHKMNHVTPPNVTLGAT | 2.09
183 | FVKALDDLHKMVHVTPPNVSLGAT | 1.67
184 | FVKALDDLHKMQHVTPPNVSLGAT | 1.58
185 | FVKALDDLHKMRHVTPPNVSLGAT | 1.56
186 | FVKALDDLHKMSHVTPPNVSLGAT | 2.12
187 | FVKALDDLHKMYHVTPPNVSLGAT | 3.14
188 | FVKALDDLHKMTHVTPPNVSLGAT | 1.8

— the supplement of paper PMC10567573
